Reference: paper doi:10.1101/480269v2

What was measured:
Assay in all cases: purified protein
Conditions in all cases: Mg2+ as the activating cation
purified protein [1] = substrate: Nc1ncnc2c1ncn2[C@@H]1O[C@H](COP(=O)(O)O)[C@@H](O)[C@H]1O
purified protein [2] = substrate: NC(=O)c1ccc[n+]([C@@H]2O[C@H](COP(=O)(O)OP(=O)(O)OC[C@H]3O[C@@H](n4cnc5c(N)ncnc54)[C@H](O)[C@@H]3O)[C@@H](O)[C@H]2O)c1
purified protein [3] = substrate: NC(=O)C1=CN([C@@H]2O[C@H](COP(=O)(O)OP(=O)(O)OC[C@H]3O[C@@H](n4cnc5c(N)ncnc54)[C@H](O)[C@@H]3O)[C@@H](O)[C@H]2O)C=CC1
purified protein [4] = substrate: NC(=O)c1ccc[n+]([C@@H]2O[C@H](COP(=O)([O-])O)[C@@H](O)[C@H]2O)c1

B1: UshA (Escherichia coli K-12) (protein)
chain: YEQDKTYKITVLHTNDHHGHFWRNEYGEYGLAAQKTLVDGIRKEVAAEGGSVLLLSGGDINTGVPESDLQDAEPDFRGMNLVGYDAMAIGNHEFDNPLTVLRQQEKWAKFPLLSANIYQKSTGERLFKPWALFKRQDLKIAVIGLTTDDTAKIGNPEYFTDIEFRKPADEAKLVIQELQQTEKPDIIIAATHMGHYDNGEHGSNAPGDVEMARALPAGSLAMIVGGHSQDPVCMAAENKKQVDYVPGTPCKPDQQNGIWIVQAHEWGKYVGRADFEFRNGEMKMVNYQLIPVNLKKKVTWEDGKSERVLYTPEIAENQQMISLLSPFQNKGKAQLEVKIGETNGRLEGDRDKVRFVQTNMGRLILAAQMDRTGADFAVMSGGGIRDSIEAGDISYKNVLKVQPFGNVVVYADMTGKEVIDYLTAVAQMKPDSGAYPQFANVSFVAKDGKLNDLKIKGEPVDPAKTYRMATLNFNATGGDGYPRLDNKPGYVNTGFIDAEVLKAYIQKSSPLDVSVYEPKGEVSWQ
Work on B1 yielded a Km (purified protein [1]) of 1.2 ± 0.1 µM, a kcat (purified protein [1]) of 405 ± 4 s⁻¹ and a Km (purified protein [2]) of 5.3 ± 0.6 µM. The kcat (purified protein [2]) was 19.3 ± 0.9 s⁻¹, the Km (purified protein [3]) was 7.0 ± 0.8 µM and the kcat (purified protein [3]) was 10.0 ± 0.2 s⁻¹. For the same protein, the Km (purified protein [4]) was 11.1 ± 1.3 µM and the kcat (purified protein [4]) was 1492 ± 31 s⁻¹.
